For this assay, the target named is Recombinant SARS-CoV-2 spike N-terminal domain (NTD) (SARS-CoV-2, ancestral (Wuhan-Hu-1), UniProt P0DTC2). Put plainly: BLI.

B1: PVI.V6-14 monoclonal antibody (IgG) (antibody, V domains shown)
VH: QVQLQESGPGLVKPSETLSLTCTVSGGSISSSSYYWGWIRQPPGKGLEWIGSIYYSGSTYYNPSLKSRVTISVDTSKNQFSLKLSSVTAADTAVYYCARCRPEYYFGSGSYLDFDY
VL: DIQMTQSPSSVSASVGDRVTITCRASQGISSWLAWYQQKPGKAPKLLIYAASSLQSGVPSRFSGSGSGTDFTLTISSLQPEDFATYYCQQANSFPLTFGGGTKVEIK
For B1, the binding result is listed as “binds”.

The values are drawn from doi:10.1101/2021.07.08.451649 (bioRxiv, 2021).
